Reference: the DeepSol protein solubility set

Test: soluble on expression in E. coli; label from the status in PepcDB or PDB records
For “CATGTRQSPINIQWKDSVYDPQLAPLRVSYDAASCRYLWNTGYAFQVEFDDSCEDSGISGGPLGNHYRLKQFHFHWGATDEWGSEHAVDGHTYPAELHLVHWNSTKYENCKKASVGENGLAVIGVFLKLGAHHQALQKLVDVLPEVRHKDTQVAMGPFDPSCLMPACRDYWTYPGSLTTPPLAESVTWIVQKTPVEVSPSQLSMFRTLLFSGRGEEEDVMVNNYRPLQPLRDRKLRSSFRLDRTKMRS”, the “soluble on expression in E. coli” value was “soluble”. For “MGSDKIHHHHHHMNFGYWYYREYFNTIKLNSEGIVTNFSTFNKGKNDKLIKGATLPPCDKENDIKDVTGFELKTCYPGLLCGVGYHHEINKPADEKGKKVEGDKEDDAPEVYNLGMYFDYTSGLPVIPGSSIKGMLRSAIEEWDFLADYELNNGVTREEIIEKVFVGKEYSIYDRDIFLDAIPIRVDNTLFGEDYITHHPNPLQNPNPVRFLRVEPGVTYQFRFILKDHGEKLTVDFRTKLFKAIICTFGLGAKTNVGYGQFVEP”, the “soluble on expression in E. coli” value was “not soluble”. For “MSSKWITSLFKSVVLTAALVTPFAASAFTEGTDYMVLEKPIPNADKTLIKVFSYACPFCYKYDKAVTGPVSDKVADLVTFTPFHLETKGEYGKQASEVFAVLIAKDKAAGISLFDAKSQFKKAKFAWYAAYHDKKERWSDGKDPAAFIKTGLDAAGMSQADFEAALKDPAVQETLEKWKAAYDVAKIQGVPAYVVNGKYLIYTKNIKSIDSMAELVRELATKK”, the “soluble on expression in E. coli” value was “not soluble”. With “MKSSTMTSDYYKQTQIDQTLRLREVLKTLPPFAKDYFRAMEPKSSAKTRINYAYDIRVFFHFLLENNPIYKNYTMDQFRVQDLERIEPVDIEEYMEYLKVYKREDNEMITNGERGLKRKMSALRSFYSYYFKHQYIATNPTLLEHHHHHH” the “soluble on expression in E. coli” value was “not soluble”. For “MGSDKIHHHHHHADNPVVQTLYTTDPAPMVYNGTCYLYTGHDEDGSTWYTMKDWRCYSSTDMVNWTDNGSPLAYNTFSWAKGDAWAGQCIPRNGKFYYYVPVTQKSGGMAIGVAVSNSPTGPFVDALGHPLAYTGTGDIDPTVFIDNDGQAYLYWGNPNLYYVKLNQDMISYSGKIVQVPLTTAGFGVRKGNSSRPTLYEEGPWFYKRNGMYYMVYAAGGIPEYISYSTSKSPTGPWYYKGVIMPSQGRSFTNHPGVIDFKGNSYFFYHNGALPGGSGFTRSVCIEQFKYNADGTFPTINMTTTGVSGIGNLNPYTQNEAETICWESNVKTEKCSEGGMDVCNIQNNSWIKVKGVNFDSGAASFNARVASATNGGNIELHLDSPSGTLIGTCHVNSTGGWQSWVTNSCNVSGAKGIHDLYLKFTGGNGYLFNVNWWKFNGTKTVSTR”, the “soluble on expression in E. coli” value was “not soluble”. With “MGSDKIHHHHHHMRILGIETSCDETGVAIYDEQRGLIANQLYSQIEMHADYGGVVPELASRDHIRKTLPLIQAALKEANLTASEIDGIAYTAGPGLVGALLVGATIARALAYAWNVPALAVHHMEGHLMAPMLEENPPEFPFIALLISGGHTQLIKVAGVGEYEILGESIDDAAGEAFDKTGKLLGLDYPAGVALSQLAEKGTPNRFVFPRPMTDRPGLDFSFSGLKTFAANTINAQLDENGQLNEQTRCDIAHAFQQAVVDTIIIKCKRALQQTGYSRLVMAGGVSANKQLRAELATMMQALKGQVYYPRPQFCTDNGAMIAYTGFIRLKKGEKTDLSVSVKPRWPMTTLLKLSAHHKV” the “soluble on expression in E. coli” value was “not soluble”. With “MYDLLVIGAGPGGYVAAIRAAQLGMKVGVVEKEKALGGTCLRVGCIPSKALLETTERIYEAKKGLLGAKVKGVELDLPALMAHKDKVVQANTQGVEFLFKKNGIARHQGTARFLSERKVLVEETGEELEARYILIATGSAPLIPPWAQVDYERVVTSTEALSFPEVPKRLIVVGGGVIGLELGVVWHRLGAEVIVLEYMDRILPTMDLEVSRAAERVFKKQGLTIRTGVRVTAVVPEAKGARVELEGARSWKTDRVLVAVGRRPYTEGLSLENAGLSTDERGRIPVDEHLRTRVPHIYAIGDVVRGPMLAHKASEEGIAAVEHMVRGFGHVDYQAIPSVVYTHPEIAAVGYTEEELKAQGIPYKVGKFPYSASGRARAMGETEGFIKVLAHAKTDRILGVHGIGARVGDVLAEAALALFFKASAEDLGRAPHAHPSLSEILKEAALAAWERPIHL” the “soluble on expression in E. coli” value was “soluble”. With “MVSVEDYYTSEEKICDGIFVGNYGERKGSRYLFQIWDKVNEKIDAKLCIIGKGWSEIPKNSVYYGFVTEREKIDLLAKSKVFVFPSLYEGFALAVTEALSAYLPVVTWDLKWSERYPVAIRVTYPDISSFAEEVVKLLKDEKLRKSIGEKSREL” the “soluble on expression in E. coli” value was “soluble”. With “MGKEYVVIGLGRFGGSIVRELNALDMDVMAIDHDENRVNEYSDIATHAVVADTTDEAVMKSLGIRNFDHVIVAIGENIQSSTLTTLILKELGVKKVTAKAQNDYHAKILNKIGADTVVHPERDMGRRIAHNVASASVLDYLELADEHSIVELKATEKMAGQSIIDLDIRAQYGINIIAIKRGKEFIISPNPNINLEIGDILIMIGHDNDLNRFEKNIATR” the “soluble on expression in E. coli” value was “not soluble”. In the case of “GQSMTQQLRVLKSGVDIVVGTPGRVIDHLERKSLNLEHIAYFVLDEADEMLNMGFIDDIKEILKSTGPNKRMLFFSATMPKAILGIVKKHMQNYEHITIEKEELTETLTEQIYFEVKESDKFEALCRIIDIEDEFYGLVFCRTKTDTSQLAQKLSDRGYLADALHGDLSQQEREKILNKFRKQKINILAATDVAARGIDIMDLTHVINYALPQDPESYVHRIGRTGRAGKQGTAITFVTSTEFRRLTYIKKTSKSEMKKGHIPEIKDVIKAKRARVRTELEETIKTEEYGDCLEMSQKLLEEYPAEKILAALLKFTFKDKFDESMYTEISSGSSYVDRKGKSRLFIAMGKADGMTPDKLSYFIQEELGDGELKVRDAEIFPHFSFVTLPFAQAETLIEIFKNKRRGSKPFVELAQKSRGRSSKDSGETRSDNRGTSRGNSRNGESRGDSRGESRGTKSTNYSRSTRSTRSTKK”, the “soluble on expression in E. coli” value is reported as “not soluble”. With “PLQEERLQRLQDRMVVPFDETRPDHQESLKALWNVAFPNVHLTGLVTEQWKEMGWQGPNPSTDFRGCGFIALENLLFSARTYPVNYSLLLKQRGDRAKWEYPFAVAGINISFMLIQMLDLQNNQDERAFDVLYCIAFAMMDAQWLAMHASYMEFNEVLQATRNQLERELSLDDIHRIQDLPAYNLLFQ” the “soluble on expression in E. coli” value was “not soluble”. With “GMVSRSPFESFQWKSDIFNCESTDIDNFYLLLEQEMTRLGMVEKNLGEVGKYKVSLYQSPAAKSGLPSLLISAGFHGEESAGPWGLLHFLSEASADLFERVNLSLLPLVNPTGFSRGHRFNKYGENPNRGFVFENGKPKANEHTSVEGKLLLDHAQLLIAACRDGILTCHEDVLSREAYVYSFEPSQVPGRFSLDLRDTLGGYFPIAVDGEIDACPVKDGLIFNHFDTSFEACLVRSGARVGACTETPALQNFDQRVLANSAAMTHFLALCAPLCD” the “soluble on expression in E. coli” value was “soluble”. In the case of “MGSDKIHHHHHHMLADLPIALNPHEPTSIPTQLTEQIRRLVARGILTPGDPLPSSRSLSTQLGVSRGSVVTAYDQLAGEGYLSTARGSGTTINPDLHLLKPVEIEKKETSRSVPPPLLNLSPGVPDTATLADSAWRAAWREACAKPPTHSPEQGLLRLRIEIADHLRQMRGLMVEPEQIIVTAGAREGLSLLLRTMDAPARIGVESPGYPSLRRIPQVLGHETIDVPTDESGLVPRALPHDLNALLVTPSHQYPYGGSLPADRRTALVAWAEANDALLIEDDFDSELRYVGMPLPPLRALAPDRTILLGTFSSVITPQVACGYLIAPTPQARVLATLRGILGQPVGAITQHALASYLASGALRRRTQRLRRLYRHRRSIVQDTLGDLPNTQLRPINGGLHAVLLCDKPQDLVVTTLASRGLNVTALSHYWGGTGADNGIVFGFGSHDEDTLRWVLAEISDAVSLG”, the “soluble on expression in E. coli” value is reported as “not soluble”.
